Measurements taken from patent US20140378382A1 (WISCONSIN ALUMNI RESEARCH FOUNDATION, published 2014).
Non-standard residues stand in square brackets, D forms with d. No end group written: not given here. APC = aminopyrrolidine carboxylic acid (2-aminopyrrolidine-4-carboxylic acid); ACPC = 2-aminocyclopentane carboxylic acid; hArg = N=C(N)NCCCC[C@H](N)C(=O)O; β3hQ = NC(=O)CC[C@H](N)CC(=O)O; β3hS = N[C@@H](CO)CC(=O)O; β3hA = C[C@H](N)CC(=O)O; Aib = CC(C)(N)C(=O)O

T1: human parathyroid hormone receptor 1, wild-type (hPTHR-1) (human, UniProt Q03431 27-593)
T1 sequence (looked up): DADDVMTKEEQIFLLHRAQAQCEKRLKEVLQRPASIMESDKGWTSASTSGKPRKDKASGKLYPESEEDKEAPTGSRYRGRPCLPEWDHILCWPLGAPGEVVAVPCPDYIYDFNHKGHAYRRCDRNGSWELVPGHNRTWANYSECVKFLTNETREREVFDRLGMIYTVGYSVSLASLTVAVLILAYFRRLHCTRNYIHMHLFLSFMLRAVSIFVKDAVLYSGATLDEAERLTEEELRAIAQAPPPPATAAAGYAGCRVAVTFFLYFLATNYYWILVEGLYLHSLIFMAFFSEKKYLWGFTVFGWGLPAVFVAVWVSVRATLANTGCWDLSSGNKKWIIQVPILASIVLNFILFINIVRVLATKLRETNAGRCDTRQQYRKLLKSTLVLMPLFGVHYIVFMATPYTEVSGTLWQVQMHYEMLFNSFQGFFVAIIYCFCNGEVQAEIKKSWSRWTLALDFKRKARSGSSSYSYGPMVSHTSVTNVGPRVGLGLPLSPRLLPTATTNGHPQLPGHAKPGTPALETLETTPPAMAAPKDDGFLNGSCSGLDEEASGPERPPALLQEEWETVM

T2: rat parathyroid hormone receptor 1, wild-type (rPTHR-1) (rat, UniProt P25961 27-591)
T2 sequence (looked up): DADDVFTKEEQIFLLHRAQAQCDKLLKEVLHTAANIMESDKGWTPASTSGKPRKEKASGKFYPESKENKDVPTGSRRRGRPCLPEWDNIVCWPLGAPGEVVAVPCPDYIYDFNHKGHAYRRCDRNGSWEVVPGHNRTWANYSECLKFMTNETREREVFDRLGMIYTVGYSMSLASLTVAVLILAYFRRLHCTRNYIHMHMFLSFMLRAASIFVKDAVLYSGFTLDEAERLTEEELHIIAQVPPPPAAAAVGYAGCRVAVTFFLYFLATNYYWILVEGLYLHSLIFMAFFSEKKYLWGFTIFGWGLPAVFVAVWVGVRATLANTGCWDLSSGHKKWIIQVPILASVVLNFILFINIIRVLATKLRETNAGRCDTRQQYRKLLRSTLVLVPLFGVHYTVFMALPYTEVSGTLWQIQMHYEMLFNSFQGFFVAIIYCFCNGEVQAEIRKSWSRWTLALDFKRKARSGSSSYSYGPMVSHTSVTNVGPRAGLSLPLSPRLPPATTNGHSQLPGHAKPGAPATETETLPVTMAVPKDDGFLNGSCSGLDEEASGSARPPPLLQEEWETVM

T3: delNT PTHR1 (human, UniProt Q03431 27-593)
T3 sequence (looked up): T1 sequence (looked up)

T4: PTHR-1 (species and cells not stated for the assay) (Homo sapiens (Human), UniProt Q03431 27-593)
T4 sequence: T1 sequence (looked up)

B1: A3 (peptide)
peptide: SVSEIQLMHNLGKHLNSMERVEWLRKKLQDVHNF
modifications: C-terminal amide; three β3 residues with native side chains, αααβ pattern; bold marks lost in text (inferred 23, 27, 31)
B2: β3Ala(1) PTH(1-34) (peptide)
peptide: [β3hA]VSEIQLMHNLGKHLNSMERVEWLRKKLQDVHNF-NH2
modifications: N-terminus assumed
SMILES: CC[C@H](C)[C@H](NC(=O)[C@H](CCC(=O)O)NC(=O)[C@H](CO)NC(=O)[C@@H](NC(=O)C[C@H](C)N)C(C)C)C(=O)N[C@@H](CCC(N)=O)C(=O)N[C@@H](CC(C)C)C(=O)N[C@@H](CCSC)C(=O)N[C@@H](Cc1c[nH]cn1)C(=O)N[C@@H](CC(N)=O)C(=O)N[C@@H](CC(C)C)C(=O)NCC(=O)N[C@@H](CCCCN)C(=O)N[C@@H](Cc1c[nH]cn1)C(=O)N[C@@H](CC(C)C)C(=O)N[C@@H](CC(N)=O)C(=O)N[C@@H](CO)C(=O)N[C@@H](CCSC)C(=O)N[C@@H](CCC(=O)O)C(=O)N[C@@H](CCCNC(=N)N)C(=O)N[C@H](C(=O)N[C@@H](CCC(=O)O)C(=O)N[C@@H](Cc1c[nH]c2ccccc12)C(=O)N[C@@H](CC(C)C)C(=O)N[C@@H](CCCNC(=N)N)C(=O)N[C@@H](CCCCN)C(=O)N[C@@H](CCCCN)C(=O)N[C@@H](CC(C)C)C(=O)N[C@@H](CCC(N)=O)C(=O)N[C@@H](CC(=O)O)C(=O)N[C@H](C(=O)N[C@@H](Cc1c[nH]cn1)C(=O)N[C@@H](CC(N)=O)C(=O)N[C@@H](Cc1ccccc1)C(N)=O)C(C)C)C(C)C
B3: M-PTH(1-34) (peptide)
peptide: AVAEIQLMHQ[hArg]AKWLNSMRRVEWLRKKLQDVHNF-NH2
modifications: N-terminus assumed
SMILES: CC[C@H](C)[C@H](NC(=O)[C@H](CCC(=O)O)NC(=O)[C@H](C)NC(=O)[C@@H](NC(=O)[C@H](C)N)C(C)C)C(=O)N[C@@H](CCC(N)=O)C(=O)N[C@@H](CC(C)C)C(=O)N[C@@H](CCSC)C(=O)N[C@@H](Cc1c[nH]cn1)C(=O)N[C@@H](CCC(N)=O)C(=O)N[C@@H](CCCCNC(=N)N)C(=O)N[C@@H](C)C(=O)N[C@@H](CCCCN)C(=O)N[C@@H](Cc1c[nH]c2ccccc12)C(=O)N[C@@H](CC(C)C)C(=O)N[C@@H](CC(N)=O)C(=O)N[C@@H](CO)C(=O)N[C@@H](CCSC)C(=O)N[C@@H](CCCNC(=N)N)C(=O)N[C@@H](CCCNC(=N)N)C(=O)N[C@H](C(=O)N[C@@H](CCC(=O)O)C(=O)N[C@@H](Cc1c[nH]c2ccccc12)C(=O)N[C@@H](CC(C)C)C(=O)N[C@@H](CCCNC(=N)N)C(=O)N[C@@H](CCCCN)C(=O)N[C@@H](CCCCN)C(=O)N[C@@H](CC(C)C)C(=O)N[C@@H](CCC(N)=O)C(=O)N[C@@H](CC(=O)O)C(=O)N[C@H](C(=O)N[C@@H](Cc1c[nH]cn1)C(=O)N[C@@H](CC(N)=O)C(=O)N[C@@H](Cc1ccccc1)C(N)=O)C(C)C)C(C)C

The binders below were run against T1, human parathyroid hormone receptor 1, … (assay: cell-based or functional assay).

Binder | cAMP EC50 [nM]
B1 | 0.29

These binders were tested against T2, rat parathyroid hormone receptor 1, … (assay: cell-based or functional assay).

Binder | cAMP Max
SVSEIQLMHNLGKHLNSMERVEWLRKKLQDVHNF-NH2 [PTH(1-34)] | 1 relative to PTH(1-34)

Target: T1, human parathyroid hormone receptor 1, …
Experiment: cell-based or functional assay
Remark: another data set of the same source

Binder | cAMP EC50 [nM]
B1 | 0.29

Target: T2, rat parathyroid hormone receptor 1, …
Experiment: cell-based or functional assay
Remark: another data set of the same source

Binder | cAMP Max [cps × 10-3]
SVSEIQLMHNLGKHLNSMERVEWLRKKLQDVHNF-NH2 [PTH(1-34)] | 65
B1 | 74

Target: T1, human parathyroid hormone receptor 1, …
Experiment: cell-based or functional assay
Remark: another data set of the same source

Binder | cAMP EC50 [nM] | Fold PTH [fold]
[β3hS]VSEIQLMHNLGKHLNSMERVEWLRKKLQDVHNF-NH2 [β3Ser(1) PTH(1-34)] | 0.06 | 
[ACPC]VSEIQLMHNLGKHLNSMERVEWLRKKLQDVHNF-NH2 [ACPC(1) PTH(1-34)] | 0.15 | 1.6
SVSEI[β3hQ]LMHNLGKHLNSMERVEWLRKKLQDVHNF-NH2 [β3Gln(6) PTH(1-34)] | 14.6 | 
SVSE[ACPC]QLMHNLGKHLNSMERVEWLRKKLQDVHNF-NH2 [ACPC(5) PTH(1-34)] | 0.17 | 1.9
S[ACPC]SEIQLMHNLGKHLNSMERVEWLRKKLQDVHNF-NH2 [ACPC(2) PTH(1-34)] | 0.27 | 3
B2 | 0.2 | 2.2
SVSEI[ACPC]LMHNLGKHLNSMERVEWLRKKLQDVHNF-NH2 [ACPC(6) PTH(1-34)] | 0.34 | 3.7
SV[ACPC]EIQLMHNLGKHLNSMERVEWLRKKLQDVHNF-NH2 [ACPC(3) PTH(1-34)] | 11.5 | 126
SVSEIQL[ACPC]HNLGKHLNSMERVEWLRKKLQDVHNF-NH2 [ACPC(8) PTH(1-34)] | 9.74 | 107

The binders below were run against T3, delNT PTHR1 (assay: cell-based or functional assay).

Binder | Fold PTH [fold] | cAMP EC50 [nM]
[ACPC]VSEIQLMHNLGKHLNSMERVEWLRKKLQDVHNF-NH2 [ACPC(1) PTH(1-34)] | 8 | 500
SVSEI[β3hQ]LMHNLGKHLNSMERVEWLRKKLQDVHNF-NH2 [β3Gln(6) PTH(1-34)] |  | 6700
SVSE[ACPC]QLMHNLGKHLNSMERVEWLRKKLQDVHNF-NH2 [ACPC(5) PTH(1-34)] | 65 | 4100
S[ACPC]SEIQLMHNLGKHLNSMERVEWLRKKLQDVHNF-NH2 [ACPC(2) PTH(1-34)] | 170 | 11000
B2 | 0.4 | 25
SVSEI[ACPC]LMHNLGKHLNSMERVEWLRKKLQDVHNF-NH2 [ACPC(6) PTH(1-34)] | 360 | 22000
SV[ACPC]EIQLMHNLGKHLNSMERVEWLRKKLQDVHNF-NH2 [ACPC(3) PTH(1-34)] | 130 | 7800
SVSEIQL[ACPC]HNLGKHLNSMERVEWLRKKLQDVHNF-NH2 [ACPC(8) PTH(1-34)] | 480 | 29000

The binders below were run against T4, PTHR-1 (species and cells not stated …) (assay: cell-based or functional assay).

Binder | Fold PTH [fold] | cAMP EC50 [nM]
B3 | 4.2 | 0.34

Target: T2, rat parathyroid hormone receptor 1, …
Experiment: cell-based or functional assay
Set-up: AUC-on / AUC-washout: unit not given beside the values
Remark: another data set of the same source

Binder | AUC-on | AUC-washout | AUC Ratio
SVSEIQLMHNLGKHLNSMERVEWLRKKLQDVHNF-NH2 [PTH(1-34)] | 92000 | 100000 | 
B3 | 43000 | 640000 | 14.8

Target: T1, human parathyroid hormone receptor 1, …
Experiment: cell-based or functional assay
Remark: another data set of the same source

Binder | cAMP EC50 [nM]
[ACPC]VSEHQ[ACPC]LHDKGKSIQDLRRRELLEKLL[Aib]KLHT[ACPC]-NH2 (not fully specified; also: D6 β3 residues, positions not shown (marking lost)) [D6 BA058 ACPC(1,7)] | 141
[ACPC]VSE[ACPC]Q[ACPC]LHDKGK[ACPC]IQD[ACPC]RRR[APC]LLE[APC]LL[Aib][ACPC]LHT[ACPC]-NH2 [CycD6 BA058 ACPC(1,5,7)] | 0.65
[ACPC]VSE[ACPC]Q[ACPC]LHDKGKSIQDLRRRELLEKLL[Aib]KLHTA-NH2 [BA058 ACPC(1,5,7)] | 0.26
[ACPC]VSEHQ[ACPC]LHDKGK[ACPC]IQD[ACPC]RRR[APC]LLE[APC]LL[Aib][ACPC]LHT[ACPC]-NH2 [CycD6 BA058 ACPC(1,7)] | 18.9
[ACPC]VSEHQ[ACPC]LHDKGKSIQDLRRRELLEKLL[Aib]KLHTA-NH2 [BA058 ACPC(1,7)] | 4.69
AVSEHQLLHDKGK[ACPC]IQD[ACPC]RRR[APC]LLE[APC]LL[Aib][ACPC]LHT[ACPC]-NH2 [CycD6 BA058] | 0.18

Target: T4, PTHR-1 (species and cells not stated …)
Experiment: cell-based or functional assay
Remark: another data set of the same source

Binder | EC50(+)inhibitor/EC50(-)inhibitor [ratio] | EC50 of PTH(1-34) signaling with 1 µM inhibitor [nM]
LMHNLGKHLNSMERVEWLRKKLQDVHNF-NH2 [hPTH(7-34)] | 1.6 | 0.25
